Data reported in patent CN116178530A (SHANGHAI JUNSHI BIOSCIENCES CO LTD; JUNMENG BIOSCIENCES CO …, dated 2023).

Molecular target: SARS-CoV-2的野生型RBD蛋白(货号SPD-C82E8，ACRO Biosystems) (SARS-CoV-2, UniProt P0DTC2 319-537)

B1: JS5-10 (antibody, human IgG1, kappa, L234A L235A, V domains shown)
VH: EVQLLESGGGLVQPGGSLRLSCAASGFTFSSYAMSWVRQAPGKGLEWVSAIVGSGGSTYYADSVKGRFIISRDNSKNTLYLQMNSLRAEDTAVYYCAKSLIYGHYDILTGAYYFDYWGQGTLVTVSS
VL: DIQMTQSPSSVSASVGDRVTIPCRASQGIGNWLAWYQQKPGKAPKLLIYAASSLQSGVPSRFSGSGSGTDFTLTISSLQPEDFATYYCQQANSFPPFGQGTRLEIKR
B1 showed a Kd of 2.04 nM, a koff of 0.000215 s⁻¹ and a kon of 106000 M⁻¹ s⁻¹.
